We go through five molecules from patent US20240084003A1 (SIMCERE ZAIMING PHARMACEUTICAL, published 2024).

The chains are these.
T1: murine CD22 protein (ACROBiosystems, SI2-M52Ha) (murine, UniProt P35329 22-708)
T1 construct: extracellular domain; also called murine CD22-ECD; murine CD22-ECD-His
T1 sequence (looked up): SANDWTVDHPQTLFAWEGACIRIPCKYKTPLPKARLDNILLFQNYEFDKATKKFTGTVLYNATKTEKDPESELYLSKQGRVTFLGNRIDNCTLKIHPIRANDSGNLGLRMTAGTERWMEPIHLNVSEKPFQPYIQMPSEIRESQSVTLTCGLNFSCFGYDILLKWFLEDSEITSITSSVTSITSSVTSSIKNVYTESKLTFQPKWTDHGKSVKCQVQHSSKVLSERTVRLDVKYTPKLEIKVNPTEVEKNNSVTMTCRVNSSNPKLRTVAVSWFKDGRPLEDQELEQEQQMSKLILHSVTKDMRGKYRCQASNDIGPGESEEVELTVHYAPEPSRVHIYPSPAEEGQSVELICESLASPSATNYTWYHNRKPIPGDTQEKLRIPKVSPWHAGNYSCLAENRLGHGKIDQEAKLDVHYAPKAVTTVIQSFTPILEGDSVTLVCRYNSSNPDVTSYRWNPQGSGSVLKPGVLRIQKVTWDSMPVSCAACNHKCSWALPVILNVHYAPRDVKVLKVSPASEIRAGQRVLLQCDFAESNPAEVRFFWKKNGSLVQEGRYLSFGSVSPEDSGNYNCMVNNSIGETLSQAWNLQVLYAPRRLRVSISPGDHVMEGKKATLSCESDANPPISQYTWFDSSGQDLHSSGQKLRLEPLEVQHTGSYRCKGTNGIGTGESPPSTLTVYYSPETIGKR

T2: human CD22, endogenous on Raji cells (human, UniProt P20273 20-847)
T2 construct: whole, on cells; Endogenous protein of the Raji cell line
T2 sequence (looked up): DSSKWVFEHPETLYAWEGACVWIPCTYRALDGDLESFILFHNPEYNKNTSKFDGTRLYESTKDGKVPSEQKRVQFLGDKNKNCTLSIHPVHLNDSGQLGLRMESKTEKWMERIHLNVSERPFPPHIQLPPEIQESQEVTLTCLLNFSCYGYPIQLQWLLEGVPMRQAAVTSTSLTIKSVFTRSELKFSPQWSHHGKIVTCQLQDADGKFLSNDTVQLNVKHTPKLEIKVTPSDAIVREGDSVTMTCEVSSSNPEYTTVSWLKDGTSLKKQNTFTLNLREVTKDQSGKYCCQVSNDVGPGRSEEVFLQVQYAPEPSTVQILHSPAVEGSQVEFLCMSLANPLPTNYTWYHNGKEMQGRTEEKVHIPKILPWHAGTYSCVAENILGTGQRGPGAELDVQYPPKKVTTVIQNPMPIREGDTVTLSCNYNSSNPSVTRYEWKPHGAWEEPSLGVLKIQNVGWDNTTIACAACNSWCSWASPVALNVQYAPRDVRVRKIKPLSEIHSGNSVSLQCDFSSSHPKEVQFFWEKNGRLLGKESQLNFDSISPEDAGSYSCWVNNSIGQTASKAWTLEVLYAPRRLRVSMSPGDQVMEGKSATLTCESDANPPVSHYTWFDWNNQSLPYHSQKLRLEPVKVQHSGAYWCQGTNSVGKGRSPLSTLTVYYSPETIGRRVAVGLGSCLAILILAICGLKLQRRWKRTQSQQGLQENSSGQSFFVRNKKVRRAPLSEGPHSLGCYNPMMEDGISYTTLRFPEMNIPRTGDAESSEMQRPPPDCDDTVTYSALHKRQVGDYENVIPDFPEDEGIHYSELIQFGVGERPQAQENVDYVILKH

T3: human CD22, full length, on CHO-K1-human CD22 2C4 cells (human, UniProt P20273 20-847)
T3 construct: Full-length human CD22 (NCBI NP_001762.2) stably transfected into CHO-K1
T3 sequence: T2 sequence (looked up)

B1: F1.216.2 human-murine chimeric antibody (antibody, human IgG1, kappa, V domains shown)
VH: QVQLQQSGPEVVRPGASVKISCKASGYAFSSSWMNWMKQRPGKALEWIGRIYPGDGDTNYSGEFKVKATLTADKSSSTAYMQLSSLTSEDSAVYFCAREGSYYSNPWYFDYWGQGTTLTVSS
VL: DVLVTQTPLSLPVSLGDQASISCRSSQSIVQSNGDTYLEWYLQKPGQSPKLLIYKVSNRFSGVPDRFSGSGSGTDFTLKISRVEAEDLGVYYCFQGSHVPFTFGSGTKLEIKR
notes: Chimeric, human IgG1 / kappa
B2: F1.224.1 human-murine chimeric antibody (antibody, human IgG1, kappa, V domains shown)
VH: EVLLHQSGPELVKPGASVKISCKASGYTFTDFNMDWVRQRHGQSLEWIGDVNPNNGGTIYNQKFKGKATLTVDKSSSTVYMDLRSLTSDDTAVYYCVRLGTSDYGEAWFISWGQGTVVTVSA
VL: DIVLTQSPASLAVSLGQRATISCRASQSVSTPRYSFMHWYQQKPGQPPKLLIKYASNLESGFPARFTGSGSGTDFTLNIHPVEEEDTAAYYCQQSWAIPWTFGGGTKLEIKR
notes: Chimeric, human IgG1 / kappa; VL tied by name
B3: F1.120.15 human-murine chimeric antibody (antibody, human IgG1, kappa, V domains shown)
VH: QVQLQQSGPELVKPGASVKISCKASGNAFSNSWMNWVKQRPGKGLEWIGRVYSEDGDTQYNGKFRDKATLTADRSTSTAYMQLSSLTSEDSAVYFCARWLIYYGTYGAMDYWGQGTSVTVSS
VL: DIQMTQTTSSLSASLGDRVTISCRASQDINNYLNWYHQKPDGTVKLLIYFTSRPYSGVPSRFSGSGSGTDYSLTISNLEQEDIATYFCQQGNTLPWTFGGGTKLEIKR
notes: Chimeric, human IgG1 / kappa
B4: F1.280.1 human-murine chimeric antibody (antibody, human IgG1, kappa, V domains shown)
VH: QIQLVQSGPELKKPGETVKISCKASGYTFTTYGMSWVKQTPGKGLTWMGWINTDSGVPTYADDFKRRFAFSLEASATTAYLQINNLKNEDTATYFCARGGPDYWGQGTTLTVSS
VL: DILLTQSPATLSVTPGETVSLSCRASQSIYKNLHWYHQKSHRSPRLLIKYASDSISGIPSRFTGSGSGTNFTLSINSVKPEDEGIYYCLQGYIVPLTFGAGTKLELKR
notes: Chimeric, human IgG1 / kappa
B5: F1.250.16 human-murine chimeric antibody (antibody, human IgG1, kappa, V domains shown)
VH: QVQLQQSGAEQVKPGASVKMSCKASGYTFTTYPIEWMKQNHGESLDWIGNIHPYNDDTEYNEKFKGKATLTVEKSSNTVFLELSRLTSDDSAVYYCVRGDYYNSRYWYFDVWGTGTTVTVSS
VL: DIVMTQSQKFMSTTVGDRVSITCKAGQNVRTAVAWYQQKPGQSPKLLIYSASTRYIGVPERFTGSGSGTDFTLTITNMQSEDLADYFCQQYSSFPLTFGTGTKLELKR
notes: as for B2

The target of the first test is T1, murine CD22 protein (ACROBiosystems, …). In words: ELISA, coated murine CD22, 0.001 nM Ab. How it is done: (§1) In order to detect the binding activity of CD22 human-murine chimeric antibodies to CD22 protein, the purified human CD22-ECD-His protein obtained in Example 2 was diluted with PBS to a final concentration of 2 μg/mL, and then added to 96-well ELISA plate at 100 μl/well. The plate was sealed with plastic film and incubated overnight at 4° C., the plate was washed 2 times with PBS the next day, and then a blocking solution [PBS+2% (w/w) BSA] was added for blocking at room temperature for 2 hours. […] After incubation at 37° C. for 2 hours, the plate was washed 3 times with PBS. HRP (horseradish peroxidase)-labeled secondary antibody (purchased from Sigma, catalog number: A0170) was added, and incubated at 37° C. for 2 hours, and the plate was washed 5 times with PBS. TMB substrate was added at 50 μl/well, and incubated at room temperature for 30 minutes, then a stop solution (1.0 N HCl) was added at 50 μl/well.
(§2) In order to detect the species cross-binding activity of the chimeric antibodies, an ELISA plate was coated with commercial murine CD22 protein (ACROBiosystems, catalog number: SI2-M52Ha) and monkey CD22 protein (ACROBiosystems, catalog number: SI2-R52Ha), respectively, and the ELISA detection was performed according to the method in Example 5.1.
B1 registered an OD450 of 0.05 OD450.
Take B2: the OD450 came out at 0.05 OD450.
As to B3, the OD450 was found to be 0.05 OD450.
Still for that read-out and setting: for B4 the value was 0.05 OD450; for B5, 0.05 OD450.

A further test deals with T2, human CD22, endogenous on Raji cells. The test is described as follows: FACS, Raji cells. From the text: (§3) The required cells were scale-up cultured in a T-75 cell culture flask to the logarithmic growth phase. For the adherent cell CHO-K1, the medium was aspirated, the cells were washed 2 times with PBS buffer, and then digested with trypsin. After the digestion was terminated, the cells were washed 2 times with PBS buffer. For suspension cell Raji, the medium supernatant was directly centrifuged and discarded, and the cell pellet was washed 2 times with PBS. After counting the cells in the previous step, the cell pellet was resuspended with [PBS+2% (w/w) BSA] blocking solution to 2×10⁶ cells/ml, and added to a 96-well FACS reaction plate at 50 μl/well, and then the chimeric antibody test sample was added at 50 μl/well, and incubated on ice for 2 hours. The mixture was centrifuged and washed 3 times with PBS buffer, Alexa Flour 488-labeled secondary antibody (purchased from Invitrogen, catalog number: A-11013) was added at 50 μl/well, and incubated on ice for 1 hour. The obtained mixture was centrifuged and washed 5 times with PBS, and FACS (FACS Canto™, purchased from BD Company) was used for detection and result analysis. Data analysis was performed by software (CellQuest) to obtain the mean fluorescence density (MFI)of the cells. And then software (GraphPad Prism8) was used for analysis, data fitting, and EC50 value calculation. […] The same method was used to detect the binding of the chimeric antibodies to endogenous CD22-negative cell MoLT4 cells (purchased from ATCC, CRL-1582) and CHO-K1 cells.
On to B1, for which a half-maximal response (EC50) required 0.16 nM and the “Maximum mean fluorescence intensity” value was 25300 MFI.
B2: the EC50 is 0.65 nM and the “Maximum mean fluorescence intensity” value amounted to 23600 MFI.
In the case of B3, the EC50 was 0.89 nM and the “Maximum mean fluorescence intensity” value was 23700 MFI.
Turning to B4, the EC50 is 0.5 nM and the “Maximum mean fluorescence intensity” value came out at 25000 MFI.
Take B5: the EC50 was found to be 0.16 nM and the “Maximum mean fluorescence intensity” value worked out at 25000 MFI.

A further test has as its target T1, murine CD22 protein (ACROBiosystems, …). In words: ELISA, coated murine CD22, 0.0001 nM Ab. How it is done:
as §1, §2
Molecule B1 came in with an OD450 of 0.06 OD450.
B2: the OD450 stood at 0.05 OD450.
In turn, B3 registered an OD450 of 0.05 OD450.
In the case of B4, the OD450 is 0.05 OD450.
B5 gave an OD450 of 0.05 OD450.

In a further test the target is T3, human CD22, full length, on …. The test is described as follows: FACS, CHO-K1-human CD22 2C4 cells.
Source text: as §3
Take B1: the EC50 was 0.32 nM and the “Maximum mean fluorescence intensity” value was 31500 MFI.
For B2 the same measures were 0.99 nM and 30400 MFI.
With B3, the EC50 worked out at 1.07 nM and the “Maximum mean fluorescence intensity” value was 27900 MFI.
B4: the response was half-maximal at 0.92 nM (EC50) and the “Maximum mean fluorescence intensity” value was 43800 MFI.
For B5, the EC50 worked out at 0.49 nM and the “Maximum mean fluorescence intensity” value came out at 37400 MFI.

A further test deals with T1, murine CD22 protein (ACROBiosystems, …). In words: ELISA, coated murine CD22, 0.1 nM Ab. How it is done:
as §1, §2
As for B1, the OD450 was 0.05 OD450.
Still for that read-out and setting: the figure for B2 is 0.05 OD450.
With B3, the OD450 was 0.05 OD450.
In turn, B4 displayed an OD450 of 0.05 OD450.
The same measure, in the same setting: the figure for B5 is 0.05 OD450.

The target is the same in the next test. In words: ELISA, coated murine CD22, 0.01 nM Ab. How it is done:
as §1, §2
For the molecule B1, the OD450 is 0.05 OD450.
Turning to B2, the OD450 amounted to 0.06 OD450.
With B3, the OD450 is 0.05 OD450.
Same read-out and setting: the figure for B4 is 0.05 OD450; for B5 it is 0.05 OD450.

For another test the target is unchanged. The test is described as follows: ELISA, coated murine CD22, 100 nM Ab. How it is done:
as §1, §2
Molecule B1 returned an OD450 of 0.08 OD450.
As to B2, the OD450 worked out at 0.07 OD450.
The molecule B3 showed an OD450 of 0.06 OD450.
For B4, the OD450 was found to be 0.16 OD450.
Regarding B5, the OD450 is 0.06 OD450.

For the next test the target is unchanged. In words: ELISA, coated murine CD22, 10 nM Ab. How it is done: as §1, §2
Consider B1, for which the OD450 stood at 0.06 OD450.
In turn, B2 showed an OD450 of 0.1 OD450.
Molecule B3 showed an OD450 of 0.06 OD450.
In turn, B4 came in with an OD450 of 0.07 OD450.
B5 returned an OD450 of 0.06 OD450.

The target is the same in another test. In words: ELISA, coated murine CD22, 0.00001 nM Ab. How it is done: as §1, §2
B1 registered an OD450 of 0.06 OD450.
As for B2, the OD450 stood at 0.06 OD450.
Same read-out and setting: the figure for B3 is 0.06 OD450; for B4 it is 0.06 OD450.
Still for that read-out and setting: for B5 the value was 0.06 OD450.
